Test results: the supplement of paper PMC6757056
± gives the standard deviation of the averaged measurements.

B1: library; a variant is named by its letters at N, in order (parent)
chain: GCUGUCACCGGUGUAUUACCCUAGUGGUCGACCGGUCUGAUGAGUCUNNNNNNAGACGAAACAGC

How the values were obtained:
hypoxanthine [1] = variants of: B1; test: normalized RNA/DNA level with ligand (relative to sTRSVctl = 100) (log10 (% of sTRSVctl)); ligand: hypoxanthine (xanthine aptamer); higher = less ribozyme self-cleavage, higher mRNA level; conditions: ligand concentration (+) RNA-Seq: 5 mM, HEK293T, reporter: mCherry (pCS4076), ligand present: yes
How it was run: (§1)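 Ribozyme switch library plasmids linked to reporters were introduced into HEK293T cells at 4 µg per 6-well well, with ligand, if any, added 1 h before. Total RNA was extracted with EDTA 72 h later, reverse-transcribed, amplified, barcoded and sequenced. RNA level was computed from RNA over DNA reads relative to a spiked-in non-cleaving sequence or the top sequences, then scaled and log-transformed. The top set was 25 sequences, values were ×100 and log10, and the cutoff was ≥100 DNA reads.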

hypoxanthine [2] = variants of: B1; test: normalized RNA/DNA level without ligand (relative to sTRSVctl = 100) (log10 (% of sTRSVctl)); ligand: hypoxanthine (xanthine aptamer); higher = less ribozyme self-cleavage, higher mRNA level; conditions: HEK293T, reporter: mCherry (pCS4076), ligand present: no
How it was run: as §1

| Variant | normalized RNA/DNA level with ligand (log10) (hypoxanthine [1]) | normalized RNA/DNA level without ligand (log10) (hypoxanthine [2]) |
| --- | --- | --- |
| GCUGUCACCGGUGUAUUACCCUAGUGGUCGACCGGUCUGAUGAGUCUAUGAUUAGACGAAACAGC [AUGAUU] | 1.92 ± 0.036 | 1.709 ± 0.003 |
| GCUGUCACCGGUGUAUUACCCUAGUGGUCGACCGGUCUGAUGAGUCUAUGAUCAGACGAAACAGC [AUGAUC] | 1.98 ± 0.039 | 1.93 ± 0.022 |
| GCUGUCACCGGUGUAUUACCCUAGUGGUCGACCGGUCUGAUGAGUCUGUGCGCAGACGAAACAGC [GUGCGC] | 1.9 ± 0.023 | 1.74 ± 0.098 |
| GCUGUCACCGGUGUAUUACCCUAGUGGUCGACCGGUCUGAUGAGUCUGUGCGAAGACGAAACAGC [GUGCGA] | 1.918 ± 0.0038 | 1.58 ± 0.018 |
| GCUGUCACCGGUGUAUUACCCUAGUGGUCGACCGGUCUGAUGAGUCUAUGCCCAGACGAAACAGC [AUGCCC] | 1.97 ± 0.062 | 1.87 ± 0.048 |
| GCUGUCACCGGUGUAUUACCCUAGUGGUCGACCGGUCUGAUGAGUCUAUGCCUAGACGAAACAGC [AUGCCU] | 1.958 ± 0.0056 | 1.818 ± 0.0027 |
| GCUGUCACCGGUGUAUUACCCUAGUGGUCGACCGGUCUGAUGAGUCUAUGCCGAGACGAAACAGC [AUGCCG] | 1.837 ± 0.01 | 1.49 ± 0.089 |
| GCUGUCACCGGUGUAUUACCCUAGUGGUCGACCGGUCUGAUGAGUCUCUGCACAGACGAAACAGC [CUGCAC] | 1.94 ± 0.057 | 1.869 ± 0.018 |
| GCUGUCACCGGUGUAUUACCCUAGUGGUCGACCGGUCUGAUGAGUCUCUGCAUAGACGAAACAGC [CUGCAU] | 1.94 ± 0.043 | 1.8 ± 0.074 |
| GCUGUCACCGGUGUAUUACCCUAGUGGUCGACCGGUCUGAUGAGUCUCUGCAAAGACGAAACAGC [CUGCAA] | 1.933 ± 0.0062 | 1.773 ± 0.015 |
| GCUGUCACCGGUGUAUUACCCUAGUGGUCGACCGGUCUGAUGAGUCUUUGAUUAGACGAAACAGC [UUGAUU] | 1.98 ± 0.03 | 1.905 ± 0.011 |
| GCUGUCACCGGUGUAUUACCCUAGUGGUCGACCGGUCUGAUGAGUCUUUGAUGAGACGAAACAGC [UUGAUG] | 1.94 ± 0.045 | 1.8 ± 0.029 |
| GCUGUCACCGGUGUAUUACCCUAGUGGUCGACCGGUCUGAUGAGUCUUUGAUCAGACGAAACAGC [UUGAUC] | 1.952 ± 0.0039 | 2.02 ± 0.035 |
| GCUGUCACCGGUGUAUUACCCUAGUGGUCGACCGGUCUGAUGAGUCUAUGCAUAGACGAAACAGC [AUGCAU] | 1.87 ± 0.032 | 1.76 ± 0.019 |
| GCUGUCACCGGUGUAUUACCCUAGUGGUCGACCGGUCUGAUGAGUCUAUGCACAGACGAAACAGC [AUGCAC] | 1.91 ± 0.12 | 1.74 ± 0.034 |
| GCUGUCACCGGUGUAUUACCCUAGUGGUCGACCGGUCUGAUGAGUCUUUGCGCAGACGAAACAGC [UUGCGC] | 1.94 ± 0.027 | 1.91 ± 0.02 |
| GCUGUCACCGGUGUAUUACCCUAGUGGUCGACCGGUCUGAUGAGUCUUUGCGAAGACGAAACAGC [UUGCGA] | 1.994 ± 0.015 | 1.88 ± 0.027 |
| GCUGUCACCGGUGUAUUACCCUAGUGGUCGACCGGUCUGAUGAGUCUUUGCAUAGACGAAACAGC [UUGCAU] | 1.98 ± 0.024 | 1.862 ± 0.004 |
| GCUGUCACCGGUGUAUUACCCUAGUGGUCGACCGGUCUGAUGAGUCUUUGCACAGACGAAACAGC [UUGCAC] | 1.96 ± 0.051 | 1.9 ± 0.038 |
| GCUGUCACCGGUGUAUUACCCUAGUGGUCGACCGGUCUGAUGAGUCUUUGCAAAGACGAAACAGC [UUGCAA] | 1.92 ± 0.03 | 1.79 ± 0.048 |
| GCUGUCACCGGUGUAUUACCCUAGUGGUCGACCGGUCUGAUGAGUCUUUGCAGAGACGAAACAGC [UUGCAG] | 1.915 ± 0.017 | 1.79 ± 0.099 |
